Results on 1 molecule are retold here after patent US11034757B2, “Combination therapies using agents that target tumor-associated stroma or tumor cells and tumor vasculature” (BIOMED VALLEY DISCOVERIES, INC., priority 2014, dated 2021).

In assay [1] the test system is H460 non-small cell lung carcinoma xenograft. Put plainly: M830 in the H460 non-small cell lung carcinoma xenograft model. In kind it is in vivo, mouse. Conditions: combination partner Paclitaxel. As to the method: Tumor cells were cultured in RPMI-1640 medium supplemented with 10% fetal bovine serum, 2 mM glutamine, 100 units/mL penicillin G sodium, 100 μg/mL streptomycin sulfate, and 25 μg/mL gentamicin. The tumor cells were grown in tissue culture flasks in a humidified incubator at 37° C., in an atmosphere of 5% CO2 and 95% air.
Criteria for Regression Responses
Animals were monitored for regression responses.
The statistical tests were not adjusted for multiple comparisons.
Cultured H460 cells were harvested during exponential growth and resuspended in phosphate buffered saline at a concentration of 1×10^8 cells/mL. 1.0×10^7 tumor cells were injected subcutaneously into the flank of athymic nude mice. Animals were euthanized when tumors reached the pre-determined volume endpoint of 2000 mm^3 or on the final day (Day 88), whichever came first. […] Each treatment produced a significant survival difference versus controls (P<0.01). The median TTE for controls was 22.8 days, establishing a maximum possible TGD of 65.2 days (286%) for the 88-day study.

Assay [2] relates to MC38 colon carcinoma liver metastasis. Put plainly: M830 in MC38 colon carcinoma liver metastasis model. It is filed as in vivo, C57BL/6 mice. The source says:
C57BL/6 mice were challenged with MC38 colon carcinoma liver metastasis by intrasplenic injections of cultured cells.

The subject of another assay is UACC melanoma cells. The experiment in a line: TEM8 antibody efficacy in UACC melanoma model. In kind it is in vivo, mouse. To be noted: 15 mg/kg, 3 times per week for 3-4 weeks; start at 50 mm^3. As to the method: UACC melanoma cells were cultured and injected subcutaneously into mice. Treatment was initiated with a tumor volume of 50 mm^3, and treatment groups consisted of one of four TEM8 antibodies (M825, M830, M863, and M822), each dosed at 15 mg/kg, 3 times per week for 3-4 weeks.

B1: M830: anti-TEM8 monoclonal antibody (hIgG1); VH SEQ ID NO:5, VL SEQ ID NO:6 (antibody, V domains shown)
VH: EVQLVESGGGVVQPGRSVRLSCAASGFTFSTYTMHWVRQAPGKGLEWVAIISNDGSNKYYADPVRGRFTISRDNSKNTLYLQMNSLRAEDTAVYYCVRGSSWYRGNWFDPWGQGTLVTVSS
VL: DIQMTQSPSSLSASVGDRVTIACRASQTISRYLNWYQQKPGKAPKLLIYAASSLQSGVSSRFSGSGSGTEFTLTISSLQPEDFATYFCQQTYSPPITFGQGTRLEIKR
modifications: TEM830 mAb VH; TEM830 mAb VL
For the molecule B1, the “regression (at Day 21, vs. vehicle column)” value in assay [1] is given as “(−61%”. For the same molecule, the effect on survival result in assay [2] (P=0.0001) is given as “significantly improved the survival”. In assay [2] (vehicle 11 days), this molecule yielded a median survival of 17 days. The “effect on tumor growth in the UACC melanoma model” value in the assay with UACC melanoma cells was “effective at slowing tumor growth”.
